According to PMC2034482:
Like-named read-outs stand apart in the source and are kept apart here.

T1: Pif1p (nuclear isoform) (Saccharomyces cerevisiae, UniProt P07271 40-859)
T1 sequence: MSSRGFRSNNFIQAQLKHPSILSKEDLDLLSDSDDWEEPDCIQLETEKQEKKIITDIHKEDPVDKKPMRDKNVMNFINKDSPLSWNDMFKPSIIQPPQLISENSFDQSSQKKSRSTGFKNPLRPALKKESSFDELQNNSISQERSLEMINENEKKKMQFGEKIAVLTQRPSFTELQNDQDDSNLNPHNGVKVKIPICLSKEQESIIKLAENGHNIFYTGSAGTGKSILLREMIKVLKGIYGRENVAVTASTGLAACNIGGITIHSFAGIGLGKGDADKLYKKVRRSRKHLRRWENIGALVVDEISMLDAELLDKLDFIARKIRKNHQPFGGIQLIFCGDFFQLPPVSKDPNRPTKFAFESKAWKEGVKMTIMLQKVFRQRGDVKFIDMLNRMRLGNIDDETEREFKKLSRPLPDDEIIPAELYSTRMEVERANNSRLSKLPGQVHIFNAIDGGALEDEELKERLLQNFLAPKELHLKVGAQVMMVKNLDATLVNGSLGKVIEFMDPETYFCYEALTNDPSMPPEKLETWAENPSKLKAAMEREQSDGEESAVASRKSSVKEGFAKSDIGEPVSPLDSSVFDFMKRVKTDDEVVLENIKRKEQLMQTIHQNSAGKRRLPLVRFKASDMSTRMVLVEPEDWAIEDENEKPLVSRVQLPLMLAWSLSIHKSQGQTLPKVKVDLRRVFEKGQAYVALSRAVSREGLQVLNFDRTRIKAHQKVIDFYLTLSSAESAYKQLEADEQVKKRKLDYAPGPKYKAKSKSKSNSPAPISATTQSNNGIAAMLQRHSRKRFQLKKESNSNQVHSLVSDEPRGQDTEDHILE

B1: D20 (dsDNA)
DNA 1: CGCCATGGTGATCCGAGTGC
DNA 2: CACTGGCCGTCTTACGGTCGGCACTCGGATCACCATGGCG
B2: fR20 (DNA:RNA)
RNA: CGCCAUGGUGAUCCGAGUGCAAAAAAAAAA
DNA: B1 DNA 2
modifications: top strand RNA, bottom strand DNA
B3: fD20 (dsDNA)
DNA 1: CGCCATGGTGATCCGAGTGCAAAAAAAAAA
DNA 2: B1 DNA 2
B4: R20 (DNA:RNA)
RNA: CGCCAUGGUGAUCCGAGUGC
DNA: B1 DNA 2
modifications: top strand RNA, bottom strand DNA

How the values were obtained:
Pif1p (nuclear isoform) [1] = biological target: T1, Pif1p (nuclear isoform); experiment: EMSA
Pif1p (nuclear isoform) [2] = biological target: T1, Pif1p (nuclear isoform); experiment: EMSA; remark: listed apart in the source

Row | Binder | Kd (Pif1p (nuclear isoform) [1]) [nM] | Kd (Pif1p (nuclear isoform) [2]) [nM]
1 | B1 | 100 | 
2 | B2 | 52 | 
3 | B3 | 130 | 320
4 | B4 | 17 | 
